Paper PMC3885797 (2014)

Target: T1, 6xHis-CTNNBL1Δ76 (human, UniProt Q8WYA6 77-563)
T1 chain: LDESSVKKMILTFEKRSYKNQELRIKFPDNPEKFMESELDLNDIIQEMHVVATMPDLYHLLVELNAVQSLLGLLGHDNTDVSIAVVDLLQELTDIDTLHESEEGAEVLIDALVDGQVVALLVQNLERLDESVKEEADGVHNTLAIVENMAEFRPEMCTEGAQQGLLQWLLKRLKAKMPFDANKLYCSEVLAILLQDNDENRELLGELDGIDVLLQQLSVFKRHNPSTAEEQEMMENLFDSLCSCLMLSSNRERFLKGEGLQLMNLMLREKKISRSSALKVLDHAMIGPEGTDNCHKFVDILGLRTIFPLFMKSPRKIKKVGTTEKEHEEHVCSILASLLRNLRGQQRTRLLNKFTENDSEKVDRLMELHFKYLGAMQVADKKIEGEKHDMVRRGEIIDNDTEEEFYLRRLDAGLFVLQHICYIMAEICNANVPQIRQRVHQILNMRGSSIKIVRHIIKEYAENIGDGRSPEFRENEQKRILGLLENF
Experiment: ITC; second site

B1: Prp31 NLS peptide (peptide)
chain: RKKRGGRRYRKMKE
modifications: Limits are the UniProt NLS motif (351-364); the exact peptide is shown only in Fig. 4B and may have different flanks
How did the Kd turn out when B1 was run?
Its Kd is roughly 12 µM.

B2: CDC5L NLS3 peptide (peptide)
chain: KKRKRKR
modifications: Limits are the UniProt region required for CTNNBL1 interaction (200-206), taken as the NLS3 core; the assayed peptide is shown only in Fig. 4B and may have longer flanks
Which Kd does the source give for B2 here?
Its Kd is roughly 4 µM.
